± gives the standard deviation.
Experiment: protein stability index of a GFP-peptide fusion (GPS, HEK-293T) (PSI 1-6); higher = more stable
Conditions: c terminus: a fixed tail appended
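Also: 24-mer peptide tiles fused after GFP, lentivirally expressed, FACS-sorted into six equal bins by GFP/DsRed ratio, decoded by Illumina sequencing, PSI is the read-weighted mean bin number.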

| Sequence | protein stability index (treatment: DMSO) | protein stability index (treatment: MLN4924 1 uM, 8 h) |
| --- | --- | --- |
| QQPGQDALAVKAGHGYDSKKQQEL [ZBED1] | 5.35 ± 0.22 | 5.21 ± 0.19 |
| PQEAAGAQGRAGAPVPEPPKEEQQ [EPB41L3] | 5.2 ± 0.45 | 5.75 ± 0.26 |
| DQEPLLSIDLGTAHSAAVTASGDC [NEK8] | 5.07 ± 0.32 | 5.17 ± 0.26 |
| EPANLDILDTAGQAEFTAMRDQYM [RIT1] | 4.83 ± 0.24 | 4.67 ± 0.2 |
| RDAAGKPQRPRSAPRTSSCAERLQ [FCHO1] | 4.75 ± 0.15 | 4.68 ± 0.098 |
| VQLAQQQAALQKQQEVVVAGSSLP [ACBD3] | 4.12 ± 0.11 | 4.49 ± 0.26 |
| GEGNSSQNSRNKRAVQGPEETVTQ [TNFSF13B] | 5.51 ± 0.2 | 5.47 ± 0.096 |
| PREALSRLQELCHGWLRPEMRTKE [ZNF263] | 3.31 ± 0.23 | 3.55 ± 0.28 |
| LSTNNNTLRDHFKGISSHSRSSLM [SLC2A12] | 2.93 ± 0.3 | 3.3 ± 0.16 |
| EEEKEWAFEESKIDEHHFVAVALR [AASDHPPT] | 3.73 ± 0.37 | 3.84 ± 0.42 |
| FTEKLWPLFYPGIRAGRKNAAPLT [TRIM39] | 2.59 ± 0.74 | 2.25 ± 0.16 |
| GLEAASVYSDHTNTNNLTFLMDLP [RNF180] | 3.13 ± 0.26 | 3.22 ± 0.3 |
| VASNSELVQSSRSEVTELRRVLQG [KRT16] | 4.33 ± 0.36 | 4.47 ± 0.27 |
| EVKKKGKMKKLGQAMEEDLIVGLQ [HDAC6] | 4.55 ± 0.72 | 4.75 ± 0.14 |
| YVGNLPPDIRTKDIEDVFYKYGAI [SRSF1] | 2.28 ± 0.35 | 2.43 ± 0.36 |
| KEVMLFGHGTRKRVPLGRLELLEE [RSAD1] | 3.6 ± 0.19 | 3.59 ± 0.28 |
| FCEELESMIQEQFKKGKNPTGLLA [ADD1] | 3.9 ± 0.2 | 3.81 ± 0.18 |
| IKKLIYVHLVIWLLLVAKMSVGHL [JAGN1] | 3.31 ± 0.35 | 3.13 ± 0.24 |
| SDGRQDSPAGELPKTVQQPTESEP [MATN2] | 5.51 ± 0.24 | 5.57 ± 0.35 |
| LFGFYFCMPLVCTAIFYTLMTCEM [EDNRA] | 3.11 ± 0.33 | 3.14 ± 0.42 |
| LDGALRTFLKAFPLMGETQERERV [PSD2] | 2.96 ± 0.098 | 2.88 ± 0.25 |
| ELVLPFQELQIDDNEYAYLKAIIF [HNF4A] | 2.16 ± 0.14 | 2.37 ± 0.35 |

| Sequence | protein stability index (treatment: DMSO) | protein stability index (treatment: MLN4924 1 uM, 8 h) |
| --- | --- | --- |
| FHCSMSPGNLEKNRYGDVPCLDQT [PTPN9] | 2.79 ± 0.51 | 2.82 ± 0.47 |
| AATGGATLAQTISEAAIGGAMLGQ [HDAC6] | 4.1 ± 0.57 | 4.11 ± 0.21 |
| QTLSPDMQGAYCTFPASVLAPVPT [DUSP5] | 3.51 ± 0.32 | 3.51 ± 0.21 |
| IDGIQAIYGRSQNPVQPIGPQTPK [MMP1] | 3.97 ± 0.074 | 4.07 ± 0.36 |
| TASSISSSGGSSGSSSDNRTYRYS [DYRK1B] | 4.62 ± 0.051 | 4.67 ± 0.15 |
| TPASNHLPGWEDIESKIPLNMEEP [SLC19A2] | 5.28 ± 0.21 | 5.44 ± 0.066 |
| SPKRQLQFYRNLGKSGLRVSCLGL [KCNAB2] | 2.3 ± 0.41 | 2.18 ± 0.12 |
| APANVAKIQLRLAGQKRKHSEGRV [LOXL2] | 3.88 ± 0.13 | 4.53 ± 0.32 |
| QLFSQIGPCKNCKMIMDTAGNDPY [TIA1] | 2.32 ± 0.1 | 2.45 ± 0.28 |
| SLKAPGARGPGPEGGGGGSYFSGQ [JUNB] | 4.41 ± 0.45 | 4.67 ± 0.24 |
| PKDIMTNTHAKSILNSMNSLRKSN [KLHL12] | 3.48 ± 0.099 | 3.73 ± 0.34 |
| RYFSAWAEDDHMLIQNEYRNGGSL [WEE1] | 2.67 ± 0.5 | 2.32 ± 0.4 |
| SKVLSLQDLCCRTIVSCTPVHLVD [RAB40A] | 3.08 ± 0.27 | 2.98 ± 0.31 |
| CVADNTNLYVFGGYNPDYDESGGP [KLHDC10] | 3.26 ± 0.14 | 3.18 ± 0.34 |
| FFRSLLPNYTMEGERPEEGVAGGL [TCF25] | 3.09 ± 0.32 | 3.52 ± 0.15 |
| TLQSITWQMIEQIQFIKLFGMAKI [HNF4A] | 2.86 ± 0.6 | 2.87 ± 0.42 |
| ILLEYCSRRSMAHILKARKVLTEP [PLK2] | 2.48 ± 0.5 | 2.18 ± 0.33 |
| LGPQVSLDPMKNVTCENGLPAVVS [LOXL2] | 4.3 ± 0.97 | 4.12 ± 0.25 |
| NERDSSEPGNFIPLFTPQSPVTAT [CDC25A] | 4.65 ± 0.48 | 4.65 ± 0.33 |
| CQGQRLFEKLLQLTSQNIEIKLVS [PLD5] | 2.35 ± 0.19 | 2.29 ± 1.3 |
| GPSRPAEKPPRPEAKSAQPADGWK [GCH1] | 5.17 ± 0.082 | 5.16 ± 0.18 |
| MMKPQAETGEAARDPSLRPARTVL | 4.18 ± 0.13 | 4.33 ± 0.13 |

Reference: the supplement of paper PMC10567573
